# Measurements reported in patent US7067474B1, “Agents for treating human illnesses based on β-catenin, and the production and use thereof” (Max-Delbruck-Centrum fur Molekulare Medizin, priority 1998, dated 2006).
# T1: human β-catenin (Leu218-Leu781) mutant Arg 457 to alanine, Gal-4 activation domain fusion (human, UniProt P35222 218-781)
# T1 sequence: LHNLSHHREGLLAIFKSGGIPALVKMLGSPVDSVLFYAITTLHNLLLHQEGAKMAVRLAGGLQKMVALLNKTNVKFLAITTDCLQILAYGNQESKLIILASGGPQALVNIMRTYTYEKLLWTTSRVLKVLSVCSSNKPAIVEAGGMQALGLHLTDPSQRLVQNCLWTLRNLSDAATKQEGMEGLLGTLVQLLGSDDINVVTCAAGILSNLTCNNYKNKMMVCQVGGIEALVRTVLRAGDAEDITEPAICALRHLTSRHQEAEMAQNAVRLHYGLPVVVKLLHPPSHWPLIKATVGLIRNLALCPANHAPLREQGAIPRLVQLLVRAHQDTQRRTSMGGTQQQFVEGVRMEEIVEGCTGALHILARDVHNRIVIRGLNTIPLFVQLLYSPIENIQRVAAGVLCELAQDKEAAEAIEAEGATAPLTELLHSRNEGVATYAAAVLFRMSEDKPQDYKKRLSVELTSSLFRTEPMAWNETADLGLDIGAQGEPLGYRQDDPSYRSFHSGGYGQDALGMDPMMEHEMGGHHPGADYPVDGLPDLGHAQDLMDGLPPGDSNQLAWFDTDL
# T2: human β-catenin (Leu218-Leu781) mutant Arg 274 to alanine, Gal-4 activation domain fusion (human, UniProt P35222 218-781)
# T2 sequence: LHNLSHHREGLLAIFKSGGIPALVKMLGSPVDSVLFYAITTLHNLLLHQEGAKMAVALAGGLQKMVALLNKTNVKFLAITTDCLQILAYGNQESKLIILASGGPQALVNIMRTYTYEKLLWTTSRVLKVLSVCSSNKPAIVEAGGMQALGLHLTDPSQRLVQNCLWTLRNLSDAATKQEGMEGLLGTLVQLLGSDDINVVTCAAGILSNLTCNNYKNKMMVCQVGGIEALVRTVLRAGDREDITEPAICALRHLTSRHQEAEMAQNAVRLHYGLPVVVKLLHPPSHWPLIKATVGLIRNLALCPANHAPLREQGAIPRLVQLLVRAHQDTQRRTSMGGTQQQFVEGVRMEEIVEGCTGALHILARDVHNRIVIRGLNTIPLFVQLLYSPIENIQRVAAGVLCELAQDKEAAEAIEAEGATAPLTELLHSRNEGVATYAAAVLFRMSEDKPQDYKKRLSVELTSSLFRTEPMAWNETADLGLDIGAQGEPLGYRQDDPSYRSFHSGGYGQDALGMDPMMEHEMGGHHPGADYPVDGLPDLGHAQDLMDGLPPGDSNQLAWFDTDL
# Key:
# [1] = molecular target: T1, human β-catenin (Leu218-Leu781) mutant …; assay: yeast 2-hybrid; - means 60-100% of the wild type interaction
# [2] = molecular target: T2, human β-catenin (Leu218-Leu781) mutant …; assay: as above
binder,measurement,setting,value
"LEF-1 amino acids 1-99 fused to Lex-A (vector BTM 116) (other, UniProt P0A7C2 1-202, looked up, Order of the fusion follows the vector; also called LEF-1/TCF-4) MKALTARQQEVFDLIRDHISQTGMPPTRAEIAQRLGFRSPNAAEEHLKALARKGVIEIVSGASRGIRLLQEEEEGLPLVGRVAAGEPLLAQQHIEGHYQVDPSLFKPNADFLLRVSGMSMKDIGIMDGDLLAVHKTQDVRNGQVVVARIDDEVTVKRLKKQGNKVELLPENSEFKPIVVDLRQQSFTIEGLAVGVIRNGDWLMPQLSGGGGGGDPELCATDEMIPFKDEGDPQKEKIFAEISHPEEEGDLADIKSSLVNESEIIPASNGHEVVRQAPSSQEPYHDKAREHPDEGKHPDGGL",binding result,[1],binds
same,binding result,[2],binds
